The data set “SEC” concerns the molecule itself. The data set can be described thus: SEC. On the technique in general: Size exclusion chromatography separates by hydrodynamic size, large species first.
Data set [1] concerns the molecule itself. The data set can be described thus: SEC; M1 on Superdex 200 HiLoad 16:60, Buffer E (20 mM Tris-HCl pH 7.5, 0.2 M NaCl); two peaks (Figure S1B).
The next data set deals with T1, Mce3R R53A (Mycobacterium tuberculosis H37Rv, UniProt P95251 1-406, R53A).
T1 sequence: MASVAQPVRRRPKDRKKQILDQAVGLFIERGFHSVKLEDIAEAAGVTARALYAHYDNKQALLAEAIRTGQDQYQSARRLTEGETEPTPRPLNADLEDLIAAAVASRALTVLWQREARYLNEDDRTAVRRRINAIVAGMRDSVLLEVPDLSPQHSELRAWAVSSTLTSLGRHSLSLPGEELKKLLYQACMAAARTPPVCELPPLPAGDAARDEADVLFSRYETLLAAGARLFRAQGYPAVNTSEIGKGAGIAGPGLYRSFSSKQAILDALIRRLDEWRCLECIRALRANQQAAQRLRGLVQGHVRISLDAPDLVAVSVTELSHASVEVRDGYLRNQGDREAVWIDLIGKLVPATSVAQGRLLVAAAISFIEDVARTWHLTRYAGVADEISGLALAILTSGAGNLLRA
Briefly: EMSA; 0-128 nM; high-affinity binding lost. As to conditions: protein: recombinant; tags: MBP-His6 N-terminal, removed with TEV (same protocol as WT); chain copies: 2; label: 5'-Cy3 (forward strand); blunt.

Here are results for three molecules from paper PMC11667970, “Mycobacterium tuberculosis Mce3R TetR-like Repressor Forms an Asymmetric Four-Helix Bundle and Binds a Nonpalindrome Sequence†” (ACS Chemical Biology, 2024).

Values joined by “and” are separate entries in the source; they are usually repeats but may differ in a detail not shown here. Equal entries are not always repeated.

B1: Mce3R R53A variant (natural protein)
chain: MASVAQPVRRRPKDRKKQILDQAVGLFIERGFHSVKLEDIAEAAGVTARALYAHYDNKQALLAEAIRTGQDQYQSARRLTEGETEPTPRPLNADLEDLIAAAVASRALTVLWQREARYLNEDDRTAVRRRINAIVAGMRDSVLLEVPDLSPQHSELRAWAVSSTLTSLGRHSLSLPGEELKKLLYQACMAAARTPPVCELPPLPAGDAARDEADVLFSRYETLLAAGARLFRAQGYPAVNTSEIGKGAGIAGPGLYRSFSSKQAILDALIRRLDEWRCLECIRALRANQQAAQRLRGLVQGHVRISLDAPDLVAVSVTELSHASVEVRDGYLRNQGDREAVWIDLIGKLVPATSVAQGRLLVAAAISFIEDVARTWHLTRYAGVADEISGLALAILTSGAGNLLRA
notes: not shown: MBP, N-terminal, cleaved; His6, N-terminal, cleaved
Usually stoichiometry N stands for a count of units in the complex or per binding partner. As for B1, in “SEC”, the “stoichiometry N” value was 2 and 4.

B2: M1, N-terminal TFR segment of Mce3R (amino acids 13-193) (domain or fragment)
chain: KDRKKQILDQAVGLFIERGFHSVKLEDIAEAAGVTARALYRHYDNKQALLAEAIRTGQDQYQSARRLTEGETEPTPRPLNADLEDLIAAAVASRALTVLWQREARYLNEDDRTAVRRRINAIVAGMRDSVLLEVPDLSPQHSELRAWAVSSTLTSLGRHSLSLPGEELKKLLYQACMAAAR
notes: Mce3R (Rv1963c), Mycobacterium tuberculosis H37Rv, amino acids 13-193 (M1); calculated monomer MW 20.2 kDa; also called M1 homotetramer; M1 homodimer
For B2, the “stoichiometry N” value in data set [1] was 4 and 2.

B3: Probe A (dsDNA)
DNA 1: GCCCCGCGCTATAGGATACTAGCAAGATACATCATAGCCAATATATGCCAGTTTGCATTGCTATTTACCGATCAGTTGTCCAAGCAATCGCGTATTGGCTATGGACATCAGCGGTTCTGCCGC
DNA 2: GCGGCAGAACCGCTGATGTCCATAGCCAATACGCGATTGCTTGGACAACTGATCGGTAAATAGCAATGCAAACTGGCATATATTGGCTATGATGTATCTTGCTAGTATCCTATAGCGCGGGGC
With B3, the binding result with Mce3R R53A is “no binding”.
